In publication PMC2671584:

How the values were obtained:
Experiment in all cases: SPR; BIAcore 3000; ECM proteins immobilised on CM5 chips, endostatin injected at 0, 10, 50, 200 and 400 nM; 0.02 M Tris-HCl, 0.11 M NaCl, 0.05% P-20; 25 °C; flow 20 μl/min; global fit to the 1:1 Langmuir model; triplicates
[1] = target: mouse laminin-1-nidogen-1 complex (mouse) (UniProt P19137)
mouse perlecan (mouse) = mouse perlecan (mouse) (UniProt Q05793)
[2] = target: recombinant microfibrillar component fibulin-1 (UniProt Q08879)
UniProt Q08879, sequence (Q08879 30-705): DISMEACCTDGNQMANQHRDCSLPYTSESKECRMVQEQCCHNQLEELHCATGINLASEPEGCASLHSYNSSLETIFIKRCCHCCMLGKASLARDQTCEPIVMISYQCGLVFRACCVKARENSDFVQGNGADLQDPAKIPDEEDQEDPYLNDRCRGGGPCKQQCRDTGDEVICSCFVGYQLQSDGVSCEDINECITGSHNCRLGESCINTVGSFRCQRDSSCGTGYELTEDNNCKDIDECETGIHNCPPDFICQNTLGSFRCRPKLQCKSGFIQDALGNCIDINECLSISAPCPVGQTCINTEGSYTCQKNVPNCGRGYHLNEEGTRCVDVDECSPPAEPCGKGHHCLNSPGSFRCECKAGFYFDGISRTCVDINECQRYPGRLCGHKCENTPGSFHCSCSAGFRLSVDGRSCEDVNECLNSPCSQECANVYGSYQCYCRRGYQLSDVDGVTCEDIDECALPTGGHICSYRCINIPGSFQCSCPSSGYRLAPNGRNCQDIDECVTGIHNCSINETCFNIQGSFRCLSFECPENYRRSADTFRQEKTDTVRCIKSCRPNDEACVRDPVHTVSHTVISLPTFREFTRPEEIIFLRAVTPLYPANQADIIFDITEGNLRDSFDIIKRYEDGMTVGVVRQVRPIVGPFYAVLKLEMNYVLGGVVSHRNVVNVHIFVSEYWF

UniProt Q05793, sequence (Q05793 22-3707): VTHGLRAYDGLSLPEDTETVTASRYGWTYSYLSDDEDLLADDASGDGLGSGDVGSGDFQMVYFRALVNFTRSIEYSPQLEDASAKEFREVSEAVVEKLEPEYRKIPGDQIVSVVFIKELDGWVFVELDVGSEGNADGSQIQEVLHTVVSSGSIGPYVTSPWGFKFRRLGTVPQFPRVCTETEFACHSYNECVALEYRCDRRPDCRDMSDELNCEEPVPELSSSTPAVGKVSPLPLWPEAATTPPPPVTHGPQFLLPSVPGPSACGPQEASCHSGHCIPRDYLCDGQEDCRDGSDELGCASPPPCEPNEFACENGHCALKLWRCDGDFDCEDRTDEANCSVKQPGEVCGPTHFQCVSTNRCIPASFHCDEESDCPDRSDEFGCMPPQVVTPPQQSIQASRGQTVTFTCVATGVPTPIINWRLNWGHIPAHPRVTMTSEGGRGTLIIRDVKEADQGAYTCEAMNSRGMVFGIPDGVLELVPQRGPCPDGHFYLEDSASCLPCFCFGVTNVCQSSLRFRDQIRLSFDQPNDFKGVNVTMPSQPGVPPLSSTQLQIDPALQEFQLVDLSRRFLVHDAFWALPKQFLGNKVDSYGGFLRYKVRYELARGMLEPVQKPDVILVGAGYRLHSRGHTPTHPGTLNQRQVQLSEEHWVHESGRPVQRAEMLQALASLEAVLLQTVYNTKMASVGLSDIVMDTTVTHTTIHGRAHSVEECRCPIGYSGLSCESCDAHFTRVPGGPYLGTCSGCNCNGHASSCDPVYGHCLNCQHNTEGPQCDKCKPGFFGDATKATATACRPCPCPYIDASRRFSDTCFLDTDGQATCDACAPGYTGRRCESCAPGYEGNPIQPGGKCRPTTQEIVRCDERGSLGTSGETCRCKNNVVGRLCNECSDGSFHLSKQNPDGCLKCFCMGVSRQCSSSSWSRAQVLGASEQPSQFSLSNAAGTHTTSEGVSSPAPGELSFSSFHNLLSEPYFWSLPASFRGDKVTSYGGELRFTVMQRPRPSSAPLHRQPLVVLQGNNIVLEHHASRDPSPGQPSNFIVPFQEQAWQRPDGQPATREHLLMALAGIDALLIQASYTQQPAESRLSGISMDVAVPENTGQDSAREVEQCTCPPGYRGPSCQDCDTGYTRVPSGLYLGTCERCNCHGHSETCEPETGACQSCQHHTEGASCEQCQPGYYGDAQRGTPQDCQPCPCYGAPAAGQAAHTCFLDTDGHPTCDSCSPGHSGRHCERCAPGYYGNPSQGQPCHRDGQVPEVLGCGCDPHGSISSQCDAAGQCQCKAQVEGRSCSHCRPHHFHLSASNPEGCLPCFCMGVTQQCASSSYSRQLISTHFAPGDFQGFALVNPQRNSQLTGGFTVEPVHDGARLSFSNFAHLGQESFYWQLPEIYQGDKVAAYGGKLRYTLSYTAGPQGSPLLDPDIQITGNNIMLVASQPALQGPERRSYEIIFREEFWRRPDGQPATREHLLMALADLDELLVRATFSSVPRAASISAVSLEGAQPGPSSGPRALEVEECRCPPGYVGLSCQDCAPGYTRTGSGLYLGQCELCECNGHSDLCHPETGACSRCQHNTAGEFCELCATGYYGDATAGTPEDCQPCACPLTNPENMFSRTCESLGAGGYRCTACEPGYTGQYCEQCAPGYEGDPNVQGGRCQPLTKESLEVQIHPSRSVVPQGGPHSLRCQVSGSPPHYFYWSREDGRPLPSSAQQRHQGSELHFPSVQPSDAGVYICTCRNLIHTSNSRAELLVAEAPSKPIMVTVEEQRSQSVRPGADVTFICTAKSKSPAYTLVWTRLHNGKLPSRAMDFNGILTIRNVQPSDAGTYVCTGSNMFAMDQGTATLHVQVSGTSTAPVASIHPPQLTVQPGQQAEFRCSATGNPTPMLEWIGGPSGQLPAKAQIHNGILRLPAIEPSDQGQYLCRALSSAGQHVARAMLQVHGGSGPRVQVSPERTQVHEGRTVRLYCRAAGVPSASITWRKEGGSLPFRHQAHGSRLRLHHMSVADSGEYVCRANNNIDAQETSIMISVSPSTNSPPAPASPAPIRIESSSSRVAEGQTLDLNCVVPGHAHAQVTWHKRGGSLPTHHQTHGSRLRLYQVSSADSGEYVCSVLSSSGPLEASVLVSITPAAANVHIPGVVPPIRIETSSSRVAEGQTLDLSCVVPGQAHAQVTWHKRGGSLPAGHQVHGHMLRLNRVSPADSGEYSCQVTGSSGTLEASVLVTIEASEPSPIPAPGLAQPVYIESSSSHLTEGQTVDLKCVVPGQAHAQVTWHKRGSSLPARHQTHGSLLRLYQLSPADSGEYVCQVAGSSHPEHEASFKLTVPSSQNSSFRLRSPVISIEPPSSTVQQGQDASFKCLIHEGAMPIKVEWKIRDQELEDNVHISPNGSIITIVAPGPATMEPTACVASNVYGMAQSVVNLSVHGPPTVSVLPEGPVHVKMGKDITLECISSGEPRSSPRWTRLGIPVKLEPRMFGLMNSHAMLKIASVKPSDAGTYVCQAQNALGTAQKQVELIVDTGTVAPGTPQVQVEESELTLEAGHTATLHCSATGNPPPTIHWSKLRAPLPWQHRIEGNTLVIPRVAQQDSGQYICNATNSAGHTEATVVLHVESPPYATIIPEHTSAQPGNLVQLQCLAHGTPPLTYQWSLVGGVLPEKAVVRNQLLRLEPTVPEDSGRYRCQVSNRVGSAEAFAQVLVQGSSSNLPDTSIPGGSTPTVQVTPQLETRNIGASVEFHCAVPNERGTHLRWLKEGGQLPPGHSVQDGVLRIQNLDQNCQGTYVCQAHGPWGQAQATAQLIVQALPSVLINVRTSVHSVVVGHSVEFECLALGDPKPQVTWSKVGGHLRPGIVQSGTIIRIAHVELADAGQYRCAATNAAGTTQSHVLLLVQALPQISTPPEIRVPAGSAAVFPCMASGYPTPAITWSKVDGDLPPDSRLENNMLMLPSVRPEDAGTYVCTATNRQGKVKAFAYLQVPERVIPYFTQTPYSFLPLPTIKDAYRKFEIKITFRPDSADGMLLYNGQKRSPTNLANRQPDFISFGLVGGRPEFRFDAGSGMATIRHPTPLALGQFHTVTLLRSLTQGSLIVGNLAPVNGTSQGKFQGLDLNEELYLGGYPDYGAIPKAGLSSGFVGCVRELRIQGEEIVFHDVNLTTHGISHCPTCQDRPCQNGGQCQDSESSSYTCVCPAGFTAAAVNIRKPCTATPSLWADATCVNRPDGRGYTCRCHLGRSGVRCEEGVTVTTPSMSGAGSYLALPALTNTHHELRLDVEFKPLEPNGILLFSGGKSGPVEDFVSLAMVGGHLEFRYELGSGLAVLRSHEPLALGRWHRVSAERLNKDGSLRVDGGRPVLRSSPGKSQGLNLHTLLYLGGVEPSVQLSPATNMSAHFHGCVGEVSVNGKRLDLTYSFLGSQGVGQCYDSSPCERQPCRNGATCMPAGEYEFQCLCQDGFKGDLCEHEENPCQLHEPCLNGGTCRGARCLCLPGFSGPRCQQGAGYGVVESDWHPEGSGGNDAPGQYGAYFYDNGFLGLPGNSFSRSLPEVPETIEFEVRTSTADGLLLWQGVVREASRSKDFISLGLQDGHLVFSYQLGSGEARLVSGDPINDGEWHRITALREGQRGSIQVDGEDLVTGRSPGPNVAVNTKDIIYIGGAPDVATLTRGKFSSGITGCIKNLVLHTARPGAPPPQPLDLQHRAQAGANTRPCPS

Row | Substance | Kd [1] | Kd (mouse perlecan (mouse)) | Kd [2]
1 | p.A1381T endostatin (mutated endostatin domain, c.3601G>A) (domain or fragment) | 6.17 nM | 5.19 nM | 6.95 nM
2 | wild type human endostatin (endostatin domain of type XVIII collagen) (domain or fragment) | 3.48 nM | 5.53 nM | 3.1 nM
